The record followed here is publication PMC8064603.

As usually defined, the Kd is the concentration at which binding is half-saturated. A higher Kd goes with weaker binding.

The test concerns the target bovine RNase B, biotinylated (bovine) (UniProt P61823). In words: BLI; biotinylated RNase B captured on streptavidin biosensors; purified fimbriae at 50 and 100 nM as analyte; 0.2% BSA in HBS; global fit: conformational change model for FimH^wt, 1:1 Langmuir model for FimH^FocH; one representative experiment. In general terms: Biolayer interferometry detects binding as a change in optical thickness at a sensor tip.
Chain of UniProt P61823 (P61823 27-150): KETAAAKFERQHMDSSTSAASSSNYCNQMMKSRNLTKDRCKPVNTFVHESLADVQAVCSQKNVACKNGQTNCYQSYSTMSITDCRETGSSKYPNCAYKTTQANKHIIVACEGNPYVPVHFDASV

As to “purified type 1 fimbriae carrying wild-type FimH adhesin (FimH^wt) of E. coli K12 (from UniProt P08191 22-300) (complex)”, the Kd turned out to be 0.149 µM; the kact (rate of transition from LAS to HAS, conformational change model) is 0.0072 s⁻¹; the kinact (rate of transition from HAS to LAS, conformational change model) amounted to 0.0128 s⁻¹; the koff (LAS dissociation rate, conformational change model) came to 0.256 s⁻¹. This substance came in with a kon (LAS association rate, conformational change model) of 1.1e+06 M⁻¹ s⁻¹.
